Source: patent publication USRE46585 (LABORATOIRE FRANCAIS DU FRACTIONNEMENT ET DES …, dated 2017)
Where a chain is given by its changes, count along the chain named.

B1: B4A_03 (other)
chain: CPPCPAPELLGGPSVFLFPPKPKDTLMISRTPEVTCVVVDVSHEDPEVKFNWYVDGVEVHNAKTKPWEEQYNSTYRVVSVLPVLHQDWLNGKEYKCKVSNKALPVPIEKTISKAKGQPREPQVYTLPPSRDELTKNQVSLTCLVKGFYPSDIAVEWESNGQPENNYKTTPPVLDSDGSFFLYSKLTVDKSRWQQGNVFSCSVMHEALHSHYTQKSLSLSPGK
notes: EU numbering
B2: S4A_36 (other)
chain: B1 chain with P5Q, V39A, W67R, P82T, V105A, P127S, A153V, S209N
notes: EU numbering
B3: S4A_25 (other)
chain: B1 chain with D40G, W67R, P82T, V105A, S183T, S209Y, S219F
notes: EU numbering
B4: SSA_20 (other)
chain: B1 chain with P5Q, F16Y, K21R, D45E, W67R, P82T, V105A, S209N
notes: EU numbering; also called S5A_20 (probable reading)
B5: S5A_43 (other)
chain: B1 chain with P5S, V59L, W67R, P82T, V105A, A153V, S209N
notes: EU numbering
B6: S3A_06 (other)
chain: B1 chain with P5T, A6T, W67R, P82T, V105A, A153V, S209N
notes: EU numbering
B7: S4A_05 (other)
chain: B1 chain with W67R, P82T, V105A, A153V, D176A, S209Y
notes: EU numbering
B8: S6A_48 (other)
chain: B1 chain with W67R, P82T, V105A, R130Q, K167E, T168N, S201T, S209Y
notes: EU numbering
B9: B6A_31 (other)
chain: B1 chain with W67R, P82T, V105A, S150G, M203L, H208P, S209N
notes: EU numbering
B10: L4A_28 (other)
chain: B1 chain with W67R, P82T, V105A, M203L, Q213R, P220S
notes: EU numbering
B11: B6A_20 (other)
chain: B1 chain with W67R, P82T, K95T, V105A, S209Y, K214R, K222E
notes: EU numbering
B12: L3A_39 (other)
chain: B1 chain with W67R, P82T, V105A, S150G, P170S
notes: EU numbering
B13: B5A_17 (other)
chain: B1 chain with W67R, P82T, N90D, V105A, Q137R, S209Y
notes: EU numbering
B14: B5A_16 (other)
chain: B1 chain with S14A, W67R, S73G, P82T, N90D, V105A, Q122R, S209Y, S215R
notes: EU numbering
B15: L6B_31 (other)
chain: B1 chain with P5T, W67R, V80A, P82A, V105A, A153V, L173P
notes: EU numbering
B16: S4A_42 (other)
chain: B1 chain with V39A, W67R, P82T, V105A, S209Y, G221A
notes: EU numbering
B17: S5A_26 (other)
chain: B1 chain with W67R, P82T, Q86R, V105A, K109R, Q117E, S209Y
notes: EU numbering
B18: B5A_25 (other)
chain: B1 chain with F18L, W67R, P82T, N90D, V105A, T186A
notes: EU numbering
B19: S5A_07 (other)
chain: B1 chain with W67R, P82T, V105A, A153V, N196T
notes: EU numbering
B20: S4A_07 (other)
chain: B1 chain with W67R, V105A, N164T, S209Y
notes: EU numbering
B21: B6A_41 (other)
chain: B1 chain with W67R, P82T, V105A, S209Y, Q213R, K222E
notes: EU numbering
B22: S4A_24 (other)
chain: B1 chain with V39E, W67R, R76C, P82T, V105A, A153V, E157G, S209N
notes: EU numbering
B23: S4A_14 (other)
chain: B1 chain with N51S, W67R, P82T, V105A, A153V
notes: EU numbering
B24: S4A_17 (other)
chain: B1 chain with W67R, V77A, P82T, V105A, N164T
notes: EU numbering
B25: T6A_85 (other)
chain: B1 chain with T25A, W67R, P82T, N90D, N100S, S209Y
notes: EU numbering
B26: T4A_48 (other)
chain: B1 chain with W67R, P82T, V83I, N90D, E157V, S209Y
notes: EU numbering
B27: C6A_85 (other)
chain: B1 chain with W67R, V80A, P82T, N90D, N164K, S209Y
notes: EU numbering
B28: T6A_75 (other)
chain: B1 chain with P5T, W67R, P82T, N90D, V105A, Q137R, S201T, S209Y
notes: EU numbering
B29: T4A_37 (other)
chain: B1 chain with P5S, V39E, W67R, P82T, V105A, P127S, A153V
notes: EU numbering
B30: T5A_25 (other)
chain: B1 chain with C1G, V39E, W67R, P82T, V105A, Q122R, K145R, A153V
notes: EU numbering
B31: T5A_87 (other)
chain: B1 chain with W67R, P82T, N90D, Q137R, S209Y
notes: EU numbering
B32: T4A_42 (other)
chain: B1 chain with C1G, W67R, P82T, N90D, V105A, Q137R, S209Y
notes: EU numbering
B33: T5A_45 (other)
chain: B1 chain with A6T, F16L, V39E, W67R, P82T, V105A, A153T, V172M
notes: EU numbering
B34: T5A_55 (other)
chain: B1 chain with P5L, F16L, F18L, V39E, W67R, V105A, A153V, S209N
notes: EU numbering
B35: T5A_57 (other)
chain: B1 chain with F16L, W67R, P82T, N90D, K167R, S209Y
notes: EU numbering
B36: T5A_93 (other)
chain: B1 chain with W67R, V80A, P82T, N90D, P170A, S209Y
notes: EU numbering
B37: C3A_13 (other)
chain: B1 chain with C1G, W67R, P82T, N90D, S209Y
notes: EU numbering
B38: C5A_65 (other)
chain: B1 chain with P5T, W67R, P82T, N90D, Q161K, S209Y
notes: EU numbering
B39: C8A_15 (other)
chain: B1 chain with W67R, P82T, N90D, A102V, V172M, S209Y
notes: EU numbering
B40: C5A_39 (other)
chain: B1 chain with K65E, W67R, P82T, N90D, V105A, Q117R, E157V, S209Y
notes: EU numbering
B41: C5A_09 (other)
chain: B1 chain with F16L, V39E, W67R, V105A, A153V
notes: EU numbering
B42: C6A_12 (other)
chain: B1 chain with P5T, W67R, P82T, N90D, V105A, Q137E, S209Y
notes: EU numbering
B43: C6A_48 (other)
chain: B1 chain with P5T, V39E, W67R, P82T, V105A, A153V
notes: EU numbering
B44: T7A_92 (other)
chain: B1 chain with V39E, W67R, P82T, V105A, P171L, S190N
notes: EU numbering
B45: T5A_74 (soluble recombinant Fc polypeptide) (other)
chain: B1 chain with W67R, P82T, N90D, N136D, A153V, S209Y
notes: EU numbering; E. coli periplasmic expression; not shown: C-terminal 6xHis tag and V5 tag
B46: C6A_60 (soluble recombinant Fc polypeptide) (other)
chain: B1 chain with P5S, W67R, P82T, N90D, V105A, M203L, S209Y
notes: as for B45

target: T1, FcRn-p3 fusion protein (human, UniProt P55899 24-297; P61769 21-119); experiment: phage ELISA pH6
T1 construct: baculovirus expressed; coated on ELISA wells; not shown: amino terminal part of bacteriophage p3 protein and CVDE protein
T1 sequence (P55899 24-297, chain 1 of 2): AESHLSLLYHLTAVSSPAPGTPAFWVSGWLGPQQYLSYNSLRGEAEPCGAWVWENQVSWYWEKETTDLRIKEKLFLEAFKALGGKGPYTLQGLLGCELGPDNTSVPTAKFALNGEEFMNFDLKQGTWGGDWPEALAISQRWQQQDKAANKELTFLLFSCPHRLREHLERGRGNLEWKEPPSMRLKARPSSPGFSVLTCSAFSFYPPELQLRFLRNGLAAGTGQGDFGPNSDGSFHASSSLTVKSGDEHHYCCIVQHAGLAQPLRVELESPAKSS
T1 sequence (P61769 21-119, chain 2 of 2): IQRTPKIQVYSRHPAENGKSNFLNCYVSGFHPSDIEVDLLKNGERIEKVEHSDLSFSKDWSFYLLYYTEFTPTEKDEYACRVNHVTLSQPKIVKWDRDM

| Binder | Ratio/Fc-WT |
| --- | --- |
| B1 | 3.7 fold |
| B2 | 4.5 fold |
| B3 | 4.2 fold |
| B4 | 4.3 fold |
| B5 | 5.7 fold |
| B6 | 3.6 fold |
| B7 | 3.7 fold |
| B8 | 4.4 fold |
| B9 | 5 fold |
| B10 | 5.2 fold |
| B11 | 3.7 fold |
| B12 | 3.2 fold |
| B13 | 4.6 fold |
| B14 | 5.6 fold |
| B15 | 6.3 fold |
| B16 | 4.2 fold |
| B17 | 7.9 fold |
| B18 | 3.6 fold |
| B19 | 5.1 fold |
| B20 | 6.6 fold |
| B21 | 4.3 fold |
| B22 | 5.4 fold |
| B23 | 5.9 fold |
| B24 | 3.8 fold |

target: T1, FcRn-p3 fusion protein; experiment: phage ELISA pH6; remark: another data set of the same source

| Binder | Ratio/Fc-H |
| --- | --- |
| B25 | 5.1 fold |
| B26 | 4.5 fold |
| B27 | 7.4 fold |
| B28 | 5.7 fold |
| B29 | 4 fold |
| B30 | 4.6 fold |
| B31 | 7.8 fold |
| B32 | 4.6 fold |
| B33 | 4.5 fold |
| B34 | 5.6 fold |
| B35 | 4.9 fold |
| B36 | 8 fold |
| B37 | 5.6 fold |
| B38 | 4.2 fold |
| B39 | 7.4 fold |
| B40 | 5 fold |
| B41 | 4.8 fold |
| B42 | 4.6 fold |
| B43 | 4.5 fold |
| B44 | 6.7 fold |

target: T1, FcRn-p3 fusion protein; experiment: phage ELISA pH6; remark: another data set of the same source

| Binder | Ratio/Fc-H |
| --- | --- |
| B25 | 5.1 fold |
| B26 | 4.5 fold |
| B27 | 7.4 fold |
| B28 | 5.7 fold |
| B29 | 4 fold |
| B30 | 4.6 fold |
| B31 | 7.8 fold |
| B32 | 4.6 fold |
| B33 | 4.5 fold |
| B34 | 5.6 fold |
| B35 | 4.9 fold |
| B36 | 8 fold |
| B37 | 5.6 fold |
| B38 | 4.2 fold |
| B39 | 7.4 fold |
| B40 | 5 fold |
| B41 | 4.8 fold |
| B42 | 4.6 fold |
| B43 | 4.5 fold |
| B44 | 6.7 fold |

target: T1, FcRn-p3 fusion protein; experiment: phage ELISA pH6 (est.)

| Binder | Ratio/FWT |
| --- | --- |
| B25 | 16.3 fold |
| B26 | 14.5 fold |
| B27 | 23.8 fold |
| B28 | 18.3 fold |
| B29 | 12.8 fold |
| B30 | 14.7 fold |
| B31 | 25 fold |
| B32 | 14.7 fold |
| B33 | 14.3 fold |
| B34 | 17.9 fold |
| B35 | 15.8 fold |
| B36 | 25.7 fold |
| B37 | 17.9 fold |
| B38 | 13.5 fold |
| B39 | 23.7 fold |
| B40 | 15.9 fold |
| B41 | 15.2 fold |
| B42 | 14.9 fold |
| B43 | 14.4 fold |
| B44 | 21.4 fold |

target: T1, FcRn-p3 fusion protein; experiment: phage ELISA pH6 (est.); remark: another data set of the same source

| Binder | Ratio/Fc-WT |
| --- | --- |
| B25 | 16.3 fold |
| B26 | 14.5 fold |
| B27 | 23.8 fold |
| B28 | 18.3 fold |
| B29 | 12.8 fold |
| B30 | 14.7 fold |
| B31 | 25 fold |
| B32 | 14.7 fold |
| B33 | 14.3 fold |
| B34 | 17.9 fold |
| B35 | 15.8 fold |
| B36 | 25.7 fold |
| B37 | 17.9 fold |
| B38 | 13.5 fold |
| B39 | 23.7 fold |
| B40 | 15.9 fold |
| B41 | 15.2 fold |
| B42 | 14.9 fold |
| B43 | 14.4 fold |
| B44 | 21.4 fold |

target: T1, FcRn-p3 fusion protein; experiment: ELISA pH6, soluble Fc on coated FcRn-p3

| Binder | EC50 |
| --- | --- |
| B45 | 5.5 nM |
| B46 | 2.6 nM |
